From PMC11423973 (2024)

Molecular target: SFTSV Gn head domain (Severe fever with thrombocytopenia …)
Assay: BLI

B1: c40C10 (human IgG1 antibody with the heavy and light chain variable regions of mAb 40C10) (antibody, V domains shown)
VH: EVQLQQSGAELVKPGASVKLSCKASGYTFTSHYMYWVKQRPGQGPEWIGEINPTNGGTKFNEKFKSKATLTVDKSSSTAYIQLSSLTSEDSAVYYCSSSGYDYDGRAYFDYWGQGTTLTVSS
VL: DVVMTQTPKFLLVSAGDRVTITCKASQSVSNDVAWYQQKPGQSPKLLIYYASYRYTGVPDRFTGSGYGTDFTFTISAVQAEDLAVYFCQQNYNSPYTFGGGTKLEIK
B1 was tested. Which Kd did it give?
Its Kd is 0.582 nM.
